Source: PMC3735172
Where two headings read alike, the source gives them in different places.

T1: MtAlba(I39) (Methanothermobacter thermautotrophicus …, UniProt O27527 1-91)
T1 sequence: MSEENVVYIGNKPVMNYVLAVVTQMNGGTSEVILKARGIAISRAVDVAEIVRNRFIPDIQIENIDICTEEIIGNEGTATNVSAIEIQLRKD

T2: MtAlba(R39) (Methanothermobacter thermautotrophicus, UniProt O27527 1-91, I39R)
T2 sequence: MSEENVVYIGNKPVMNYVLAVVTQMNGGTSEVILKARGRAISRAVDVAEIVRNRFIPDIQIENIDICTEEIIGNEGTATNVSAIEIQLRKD


Assays:
Test in all cases: EMSA
[1] = molecular target: T1, MtAlba(I39)
[2] = molecular target: T2, MtAlba(R39)
[3] = molecular target: T1, MtAlba(I39); remark: listed apart in the source

| Binder | binding result [1] | Kd [2] [nM] | binding result [3] |
| --- | --- | --- | --- |
| tRNAPro (structured_RNA) RNA: GGGCGAGUAGCGCAGCUUGGUAGCGCAACUGGUUUGGGACCAGUGGGUCGGAGGUUCGAAUCCUCUCUCGUCCACCA | no binding | ~1000 |  |
| 36 bp dsDNA (dsDNA) DNA 1: ATCAATTAAAGCGTTCTACGGCGTTTTAGATCTGAT DNA 2: ATCAGATCTAAAACGCCGTAGAACGCTTTAATTGAT |  | ~200 | no binding |
| UUAAAGCCCGUGGAAGAGCC (ssRNA) [ssRNA] | no binding | ~1500 |  |
